From patent US20250115669A1, “FGFR1/KLB Targeting Agonistic Antigen-Binding Proteins and Conjugates Thereof with GLP-1R Agonistic Peptides” (SANOFI, priority 2020, published 2025)

T1: human beta-Klotho (Homo sapiens, UniProt Q86Z14)
T1 sequence (Q86Z14 1-1044): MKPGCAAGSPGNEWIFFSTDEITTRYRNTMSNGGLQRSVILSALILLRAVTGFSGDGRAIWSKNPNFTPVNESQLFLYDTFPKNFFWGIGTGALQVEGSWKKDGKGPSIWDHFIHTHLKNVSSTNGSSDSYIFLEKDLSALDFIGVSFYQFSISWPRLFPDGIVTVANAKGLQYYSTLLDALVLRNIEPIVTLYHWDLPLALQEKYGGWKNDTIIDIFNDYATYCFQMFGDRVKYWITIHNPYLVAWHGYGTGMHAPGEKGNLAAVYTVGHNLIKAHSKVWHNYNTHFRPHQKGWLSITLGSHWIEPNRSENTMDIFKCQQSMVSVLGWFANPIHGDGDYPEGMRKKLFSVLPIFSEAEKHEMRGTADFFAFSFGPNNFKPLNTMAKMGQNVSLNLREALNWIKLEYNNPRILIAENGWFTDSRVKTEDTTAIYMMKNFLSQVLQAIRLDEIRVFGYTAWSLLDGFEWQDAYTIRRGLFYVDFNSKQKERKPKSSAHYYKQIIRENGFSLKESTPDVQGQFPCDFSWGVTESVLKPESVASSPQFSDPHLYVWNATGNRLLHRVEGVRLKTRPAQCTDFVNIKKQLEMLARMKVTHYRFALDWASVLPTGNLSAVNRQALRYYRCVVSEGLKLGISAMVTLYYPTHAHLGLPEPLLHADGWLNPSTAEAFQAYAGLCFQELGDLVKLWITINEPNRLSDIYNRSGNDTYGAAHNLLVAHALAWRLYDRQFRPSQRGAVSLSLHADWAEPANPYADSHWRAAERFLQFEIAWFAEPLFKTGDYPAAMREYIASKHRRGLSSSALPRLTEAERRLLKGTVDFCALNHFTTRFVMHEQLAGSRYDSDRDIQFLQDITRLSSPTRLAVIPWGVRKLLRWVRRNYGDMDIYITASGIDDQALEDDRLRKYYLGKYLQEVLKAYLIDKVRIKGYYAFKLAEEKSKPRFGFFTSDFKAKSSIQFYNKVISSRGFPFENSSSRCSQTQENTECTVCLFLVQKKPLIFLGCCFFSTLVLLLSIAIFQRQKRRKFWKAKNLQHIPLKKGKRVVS


target: T1, human beta-Klotho; experiment: SPR off-rate screening of antibody mutants (human beta-Klotho captured by anti-His antibody); format: binding; conditions: mean, n=3
Description: Screening of antibody mutants for binding to human beta-Klotho was determined in a different SPR assay set up. Human beta-Klotho was affinity captured by an anti-His antibody (from His capture kit, GE Healthcare) that was immobilized to a series S CM5 chip (GE Healthcare) by amine reactive coupling as described above. The antibody samples were used as analytes at 50 nmol/L concentration. Association time was 240 sec and dissociation time was 300 sec. Chip surfaces were regenerated using the regeneration solution supplied with the His capture kit. The off-rates (kd) were determined using single exponential fitting in the Biacore 8K Evaluation Software version 1.1.1.7442 (GE Healthcare).

Row | Molecule | koff human KLB
1 | Ab0319: IgG4 PE; 16H7 VL (D49Y, D50E, D91T, N93E); 16H7 VH (M34V, I83T, D109E) (antibody) VH: QVTLKESGPVLVKPTETLTLTCTVSGFSLNNARVGVSWIRQPPGKALEWLAHIFSNDEKSYSTSLKSRLTISKDTSKSQVVLTMTNMDPVDTATYYCARSVVTGGYYYEGMDVWGQGTTVTVSS light: SYVLTQPPSVSVAPGQTARITCGGNNIGSESVHWYQQKPGQAPVLVVYYESDRPSGIPERFSGSNSGNTATLTISRVEAGDEADYYCQVWTGESDHVVFGGGTKLTVLGQPKANPTVTLFPPSSEELQANKATLVCLISDFYPGAVTVAWKADGSPVKAGVETTKPSKQSNNKYAASSYLSLTPEQWKSHRSYSCQVTHEGSTVEKTVAPTECS | invalid fit
2 | Ab0371: IgG4 PE; 16H7 VL (Y48del, D95E, W90H); 16H7 VH (M34V, H52W, I83T, D109E) (antibody) VH: QVTLKESGPVLVKPTETLTLTCTVSGFSLNNARVGVSWIRQPPGKALEWLAWIFSNDEKSYSTSLKSRLTISKDTSKSQVVLTMTNMDPVDTATYYCARSVVTGGYYYEGMDVWGQGTTVTVSS light: SYVLTQPPSVSVAPGQTARITCGGNNIGSESVHWYQQKPGQAPVLVVDDSDRPSGIPERFSGSNSGNTATLTISRVEAGDEADYYCQVHDGNSEHVVFGGGTKLTVLGQPKANPTVTLFPPSSEELQANKATLVCLISDFYPGAVTVAWKADGSPVKAGVETTKPSKQSNNKYAASSYLSLTPEQWKSHRSYSCQVTHEGSTVEKTVAPTECS | no binding
3 | Ab0372: IgG4 PE; 16H7 VL (Y48del, D95E, W90H, S1C, S94C); 16H7 VH (M34V, H52W, I83T, D109E) (antibody) VH: QVTLKESGPVLVKPTETLTLTCTVSGFSLNNARVGVSWIRQPPGKALEWLAWIFSNDEKSYSTSLKSRLTISKDTSKSQVVLTMTNMDPVDTATYYCARSVVTGGYYYEGMDVWGQGTTVTVSS light: CYVLTQPPSVSVAPGQTARITCGGNNIGSESVHWYQQKPGQAPVLVVDDSDRPSGIPERFSGSNSGNTATLTISRVEAGDEADYYCQVHDGNCEHVVFGGGTKLTVLGQPKANPTVTLFPPSSEELQANKATLVCLISDFYPGAVTVAWKADGSPVKAGVETTKPSKQSNNKYAASSYLSLTPEQWKSHRSYSCQVTHEGSTVEKTVAPTECS | no binding
4 | Ab0373: IgG4 PE; 16H7 VL (Y48del, D95E, W90H, S94C, H96C); 16H7 VH (M34V, H52W, I83T, D109E) (antibody) VH: QVTLKESGPVLVKPTETLTLTCTVSGFSLNNARVGVSWIRQPPGKALEWLAWIFSNDEKSYSTSLKSRLTISKDTSKSQVVLTMTNMDPVDTATYYCARSVVTGGYYYEGMDVWGQGTTVTVSS light: SYVLTQPPSVSVAPGQTARITCGGNNIGSESVHWYQQKPGQAPVLVVDDSDRPSGIPERFSGSNSGNTATLTISRVEAGDEADYYCQVHDGNCECVVFGGGTKLTVLGQPKANPTVTLFPPSSEELQANKATLVCLISDFYPGAVTVAWKADGSPVKAGVETTKPSKQSNNKYAASSYLSLTPEQWKSHRSYSCQVTHEGSTVEKTVAPTECS | no binding
5 | Ab0320: IgG4 PE; 16H7 VL (N25S, D49Y, D50E, D91T, N93E); 16H7 VH (M34V, I83T, D109E) (antibody) VH: QVTLKESGPVLVKPTETLTLTCTVSGFSLNNARVGVSWIRQPPGKALEWLAHIFSNDEKSYSTSLKSRLTISKDTSKSQVVLTMTNMDPVDTATYYCARSVVTGGYYYEGMDVWGQGTTVTVSS light: SYVLTQPPSVSVAPGQTARITCGGSNIGSESVHWYQQKPGQAPVLVVYYESDRPSGIPERFSGSNSGNTATLTISRVEAGDEADYYCQVWTGESDHVVFGGGTKLTVLGQPKANPTVTLFPPSSEELQANKATLVCLISDFYPGAVTVAWKADGSPVKAGVETTKPSKQSNNKYAASSYLSLTPEQWKSHRSYSCQVTHEGSTVEKTVAPTECS | invalid fit

Second part, the molecule after the results:

Row | koff human KLB | Molecule
6 | no binding | Ab0376: IgG4 PE; 16H7 VL (Y48del, D95E, W90F, S94C, H96C); 16H7 VH (M34V, F54W, I83T, D109E) (antibody) VH: QVTLKESGPVLVKPTETLTLTCTVSGFSLNNARVGVSWIRQPPGKALEWLAHIWSNDEKSYSTSLKSRLTISKDTSKSQVVLTMTNMDPVDTATYYCARSVVTGGYYYEGMDVWGQGTTVTVSS light: SYVLTQPPSVSVAPGQTARITCGGNNIGSESVHWYQQKPGQAPVLVVDDSDRPSGIPERFSGSNSGNTATLTISRVEAGDEADYYCQVFDGNCECVVFGGGTKLTVLGQPKANPTVTLFPPSSEELQANKATLVCLISDFYPGAVTVAWKADGSPVKAGVETTKPSKQSNNKYAASSYLSLTPEQWKSHRSYSCQVTHEGSTVEKTVAPTECS
7 | no binding | Ab0378: IgG4 PE; 16H7 VL (Y48del, D95V, W90F); 16H7 VH (M34V, H52S, F54W, I83T, D109E) (antibody) VH: QVTLKESGPVLVKPTETLTLTCTVSGFSLNNARVGVSWIRQPPGKALEWLASIWSNDEKSYSTSLKSRLTISKDTSKSQVVLTMTNMDPVDTATYYCARSVVTGGYYYEGMDVWGQGTTVTVSS light: SYVLTQPPSVSVAPGQTARITCGGNNIGSESVHWYQQKPGQAPVLVVDDSDRPSGIPERFSGSNSGNTATLTISRVEAGDEADYYCQVFDGNSVHVVFGGGTKLTVLGQPKANPTVTLFPPSSEELQANKATLVCLISDFYPGAVTVAWKADGSPVKAGVETTKPSKQSNNKYAASSYLSLTPEQWKSHRSYSCQVTHEGSTVEKTVAPTECS
8 | no binding | Ab0377: IgG4 PE; 16H7 VL (Y48del, D95V, W90F); 16H7 VH (M34V, F54W, I83T, D109E) (antibody) VH: QVTLKESGPVLVKPTETLTLTCTVSGFSLNNARVGVSWIRQPPGKALEWLAHIWSNDEKSYSTSLKSRLTISKDTSKSQVVLTMTNMDPVDTATYYCARSVVTGGYYYEGMDVWGQGTTVTVSS light: SYVLTQPPSVSVAPGQTARITCGGNNIGSESVHWYQQKPGQAPVLVVDDSDRPSGIPERFSGSNSGNTATLTISRVEAGDEADYYCQVFDGNSVHVVFGGGTKLTVLGQPKANPTVTLFPPSSEELQANKATLVCLISDFYPGAVTVAWKADGSPVKAGVETTKPSKQSNNKYAASSYLSLTPEQWKSHRSYSCQVTHEGSTVEKTVAPTECS
9 | no binding | Ab0374: IgG4 PE; 16H7 VL (Y48del, D95E, W90F); 16H7 VH (M34V, F54W, I83T, D109E) (antibody) VH: QVTLKESGPVLVKPTETLTLTCTVSGFSLNNARVGVSWIRQPPGKALEWLAHIWSNDEKSYSTSLKSRLTISKDTSKSQVVLTMTNMDPVDTATYYCARSVVTGGYYYEGMDVWGQGTTVTVSS light: SYVLTQPPSVSVAPGQTARITCGGNNIGSESVHWYQQKPGQAPVLVVDDSDRPSGIPERFSGSNSGNTATLTISRVEAGDEADYYCQVFDGNSEHVVFGGGTKLTVLGQPKANPTVTLFPPSSEELQANKATLVCLISDFYPGAVTVAWKADGSPVKAGVETTKPSKQSNNKYAASSYLSLTPEQWKSHRSYSCQVTHEGSTVEKTVAPTECS
10 | no binding | Ab0379: IgG4 PE; 16H7 VL (Y48del, D95V, W90F, S1C, S94C); 16H7 VH (M34V, F54W, I83T, D109E) (antibody) VH: QVTLKESGPVLVKPTETLTLTCTVSGFSLNNARVGVSWIRQPPGKALEWLAHIWSNDEKSYSTSLKSRLTISKDTSKSQVVLTMTNMDPVDTATYYCARSVVTGGYYYEGMDVWGQGTTVTVSS light: CYVLTQPPSVSVAPGQTARITCGGNNIGSESVHWYQQKPGQAPVLVVDDSDRPSGIPERFSGSNSGNTATLTISRVEAGDEADYYCQVFDGNCVHVVFGGGTKLTVLGQPKANPTVTLFPPSSEELQANKATLVCLISDFYPGAVTVAWKADGSPVKAGVETTKPSKQSNNKYAASSYLSLTPEQWKSHRSYSCQVTHEGSTVEKTVAPTECS
